Assay results reported in patent US7871782B2, “Specific binding members against synaptophysin” (The University Court of the University of Aberdeen, priority 2004, dated 2011).

What was measured:
HSCs = test: Effect of scAb incubation on HSC viability (attachment, protein assay); assay type: cell-based, human; settings: 3 hours incubation, 5 μg scAb or indicated chemical, FIG. 12
Protocol: Effect of scAb incubation on HSC viability. HSCs seeded into 24 well plates were incubated in 0.3 mls culture medium containing 5 μg scAb or the indicated-chemical. Cells were incubated for 3 hours prior to removal of medium and washing with 1×PBS. Attachment (as a measure of viability) was determined by a direct protein assay in the culture wells.

human HSCs [1] = test: HSC viability with gliotoxin and C1-3-gliotoxin conjugate; assay type: cell-based; settings: 1.5 uM gliotoxin; 10 ug C1-3-gliotoxin conjugate in 500 ul medium; FIG. 14
Protocol: HSC viability. Human HSCs in 24 well plate culture were treated with 500 ul medium containing either DMSO vehicle; 1.5 uM gliotoxin (750 pmoles); 20 ul C1-3 scAb at 1 mg/ml (20 ug C1-3 scAb); or 20 ul C1-3-gliotoxin conjugate at 0.5 mg/ml (10 ug C1-3 scAb-250 pmoles C1-3 scAb*/1000 pmoles gliotoxidn). *0.5 mg C1-3 protein/ml stock=12.5 uM=12.5 nmoles/ml=12.5 pmol/ul

HepG2 cells = test: Fluorescence binding to cells; assay type: cell-based
COS-7 cells = test: Fluorescence binding to cells; assay type: cell-based
human hepatocytes = test: Fluorescence microscopy of FITC-labelled scAb with cells; assay type: cell-based
Protocol: (§1) FITC-C1-3 scAb was tested for its ability to interact with hepatic stellate cells in culture by fluorescence microscopy. Human hepatic stellate cells were seeded (1×10^3 cells per chamber) on chamber slides (Nunclon, Naperville) in complete medium prior to experimentation. Cells were washed twice in phosphate buffered saline (PBS) and incubated in 500 μl Hepes/HBSS buffer (0.14M NaCl, 5.4 mM KCl, 0.34 mM Na2HPO4, 0.94 mm KH2PO4, 5.6 mM glucose, 1 mM CaCl2, 6 mM HEPES, 4 mM NaHCO3 pH7.4) containing 10 μg scAb or FITC-C1-3 scAb for 1 h at room temperature in the dark. The cells were then washed in PBS and mounted with Vectashield mounting medium (Vector laboratories, Burlingame, Calif.) containing 4′,6′ diamindino-2 phenylindole (DAPI) to stain cell nuclei and coverslips applied. Florescence microscopy was carried out using a Zeiss Axeola II microscope with a Photometrics Sensis camera, and data captured using the Smart Capture programme. Human hepatocytes (UK Human Tissue Bank) were originally cultured in a collagen-coated 24 well plate (1×10^5/well) and maintained in William's medium E supplemented with 80 units/ml penicillin and 80 μg/ml streptomycin.

[2] = test system: human hepatic stellate cells; test: as above; assay type: cell-based
Protocol: as §1

human HSCs [3] = test: Fluorescence microscopy without fixation: effect of peptides and monensin on FITC-C1-3 scAb binding; assay type: cell-based; settings: 10 μg scAb, 1 hour, no fixation, FIG. 13
Protocol: Effect of synaptophysin peptides and monensin on FITC-C1-3 scAb binding to human HSCs. Human HSCs seeded into 24 well plates were washed and incubated in 500 μl Hepes/HBSS per well for 1 hour containing either: 10 μg C1-3 scAb; 10 μg FITC-C1-3 scAb; 10 μg FITC-C1-3 scAb and 0.25 nmoles of the target peptide; 10 μg FITC-C1-3 scAb and 2.5 nmoles of the target peptide; 10 μg FITC-C1-3 scAb and 25 nmoles of the target peptide; 10 μg FITC-C1-3 scAb and 25 nmoles of the target peptide P1; 10 μg FITC-C1-3 scAb and 2.5 μM monensin; 10 μg FITC-C1-3 scAb and 15 μM monensin; 10 μg FITC-3A8 scAb (scAb raised to microcystin and not expected to bind to HSCs). Cells incubated with monensin were preincubated for 10 minutes. Just prior to addition of scAb, the medium was changed and cells were re-dosed with monensin. […] Bar=μm. Monen=monensin; P1=the […] peptide (SEQ ID NO 27); P2=the target peptide.
HSCs seeded into 24 well plates were washed with Hepes/HBSS and then incubated at 37° C. in 500 μl/well Hepes/HBSS containing 10 μg scAb with or without additional compounds. After 1 hour, the cells were washed 3 times with 500 μl Hepes/HBSS. Cells were analysed using an Axiovert 100 microscope (Zeiss, Germany) using filter set #9 (BP 450-490 nm; LP 515 nm).

human HSC = test: FACS analysis of human HSC cultures; assay type: cell-based; settings: co-staining under native conditions prior to fixing, 1 hour 37° C., FIG. 10
Protocol: FACS analysis of human HSC incubated without (UPPER PANEL) or with (LOWER PANEL) primary antibodies—i.e. FITC-C13 scAb (FITC) and a mouse monoclonal antibody to α-smooth muscle actin (αsma-APC). Anti-α-smooth muscle actin antibody was detected using a biotin conjugated secondary antibody followed by fluorophore-streptavidin conjugate incubation as outlined in the Methods section. Figures represent the percentage of cells in each quadrant. Data are typical of 3 separate cell preparations.
FITC-C1-3 scAb was added to culture medium (200 μg/10 mls) and incubated with a confluent (10 cm diameter dish) culture of HSCs for 1 hour at 37° C. The medium was then removed and the cells were washed in PBS. The cells were then detached from the culture substratum non-enzymatically using cell dissociation solution (Sigma, Poole, UK), pelleted by centrifugation and fixed/permeabilised using BD cytofix/cytoperm (BD Biosciences, Oxford, UK). After 15 minutes, the cells were washed in 0.5 mls 1× wash/perm buffer (BD Biosciences, Oxford, UK) and incubated with a mouse anti-α-smooth muscle actin monoclonal antibody (Sigma, Poole, UK) diluted in 1× wash/perm buffer. […] The cells were analysed by flow cytometry (LSR I, BD, Oxford, UK). […]

human HSCs [4] = test: Uptake of scAb and conjugates by human HSCs in culture (Western blot of medium); assay type: cell-based; settings: 5 μg scAb in 0.3 mls medium, FIG. 11
Protocol: Uptake of C1-3 scAb and C1-3-conjugates by human HSCs in culture. HSCs seeded into 24 well plates were incubated in 0.3 mls culture medium containing 5 μg scAb. Samples of medium were taken at the indicated times and subjected to Western blotting to detect scAb using HRP-conjugated anti-human Cκ light chain antibody (UPPER PANEL) and serum albumin (LOWER PANEL) as a loading control. Results typical of 4 separate experiments.

[5] = test system: hepatic stellate cell and hepatocytes co-cultured; assay type: cell-based, human
Protocol: For co-culture experiments, hepatic stellate cells were seeded into hepatocytes cultures (1×10^3 cells per well) and cultured for 24 h prior to experimentation. The C1-3 or FITC-C1-3 scAb was incubated as outlined for pure hepatic stellate cell cultures except that after 1 hour incubation and washing, the cells were harvested by trypsinisation and centrifugation at 1000 rpm for 5 min. The cell pellet was then resuspended in 0.4% formaldehyde/10^6 cells, applied onto glass slides by cytocentrifugation and mounted with Vectashield containing DAPI. Slides were viewed by fluorescence microscopy as before.

Molecule | toxicity to HSCs (attachment as measure of viability) (HSCs) | killing of human HSCs (human HSCs [1]) | fluorescence binding to HepG2 cells (HepG2 cells) | fluorescence binding to COS-7 cells (COS-7 cells) | green fluorescence associated with human hepatocytes (human hepatocytes) | green fluorescence associated with hepatic stellate cells ([2]; 10 μg scAb, 1 h, room temperature) | location of fluorescence in hepatic stellate cells ([2]; mounting medium with DAPI) | association of FITC-labelled scAb with HSCs (human HSCs [3]) | binding to α-smooth muscle actin positive human HSCs (FACS) (human HSC) | association with HSCs: change of culture medium concentration of scAb (human HSCs [4]) | green fluorescence in hepatic stellate cell/hepatocyte co-cultures [5]
CN1C(=O)[C@]23CC4=CC=C[C@H](O)[C@H]4N2C(=O)[C@@]1(CO)SS3 [gliotoxin] | kill HSCs | killed human HSCs |  |  |  |  |  |  |  |  | 
FITC-C1-3 scAb: C1-3 scAb labelled with FITC (conjugate) scFv: MAEVQLLESGGGLVQPGGSLRLSCAASGFTFSSYAMSWVRQAPGKGLEWVSTIAASGPSTGYADSVKGRFTISRDNSKNTLYLQMNSLRAEDTAVYYCAKTTAKFDYWGQGTLVTVSSGGGGSGGGGSGGGGSTDIQMTQSPSSLSASVGDRVTITCRASQSISSYLNWYQQKPGKAPKLLIYSASRLQSGVPSRFNGSGSGTDFTLTISSLQPEDFATYYCQQLQRKPTTFGQGTKVEIKRGAAAPSVFIFPPSDEQLKSGTASVVCLLNNFYPREAKVQWKVDNALQSGNSQESVTEQDSKDSTYSLSSTLTLSKADYEKHKVYACEVTHQGLSSPVTKSFNRGESHHHHHH |  |  | not detected | not detected | no associated green fluorescence | fluorescence was associated with hepatic stellate cells | fluorescence was located around the nuclear and cell membranes | associated with HSCs | all the cells bound C1-3 scAb | reduction in culture medium concentrations | Fluorescence was observed on stellate cells whilst hepatocytes consistently failed to display detectable levels of associated green fluorescence
